Test: yeast display, Sf9 membrane polyspecificity reagent, FACS + sequencing; frameworks hold sequencing errors
Summary of the method: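 Polyreactivity labels are assigned by the sorting gate from which each nanobody was recovered. The gates were low and high (top ~1%), set on anti-HA fluorescence for expression and streptavidin fluorescence for reagent binding. Before sorting, galactose-induced (36–48 hours) yeast display cells were stained for 1 hour at 4 °C with 10% biotinylated, detergent-solubilized Sf9 membrane reagent.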

Sequence: QVQLVESGGGLVQAGGSLRLSCAASGSIFTLNAMGWYRQAPGKEREFVAAITWSGGSTYYADSVKGRFTISRDNAKNTVYLQMNSLKPEDTAVYYCNVEPVDRWYYKYDYWGQGTQVTVSS
- polyreactivity (PSR sort gate): low polyreactivity

Sequence: QVQLVESGGGLVQAGGSLRLSCAASGSIFTLYAMGWNRQAPGQERELVAAITRSGGSTYYADSVKGRFTSSRDNAKNTVYLQMNSLKPEDTAVYYCAADKAPYSTEGDYWGQGTQVTVSS
- polyreactivity (PSR sort gate): high polyreactivity

Sequence: QVQLVESGGGLVQAGGSLRLSCAASGSIFTLYARGWYREAPGKERELVAAITWTGGSTYYADSVKGRFTISRDNAKNTVYLQMNSLKPEDTAVYYCATDAYWQSNGAFYYVARHGGYWGQGTQVTVSS
- polyreactivity (PSR sort gate): low polyreactivity

Sequence: QVQLVESGGGLVQAGGSLRLSCAASGSIFTNNAMGWYRQAPGKERELVAGISFRGSSTYADSVKGRFTISRDNAKNTVYLQMNSLKPEDTAVYYCAAEWFDLEDDYWGQGTQVTVSS
- polyreactivity (PSR sort gate): low polyreactivity

Sequence: QVQLVESGGGLVQAGGSLRLSCAASGSIFTPNAMGGYRQAPGKERELVAAISSSSDRTYYADSVKGRFTISRDNAKNTVYLQMNSLKPEDTAVYYCAAYAQQRYYWGQGTQVTVSS
- polyreactivity (PSR sort gate): high polyreactivity

Sequence: QVQLVESGGGLVQAGGSLRLSCAASGSIFTPNAMGWYRQAPGKERELVAAISSSSDRTSYADSVKGRFTISRDNAKYTVYLQMNSLKPEDTAVYYCAAYSQKRYYWGQGTQVTVSS
- polyreactivity (PSR sort gate): high polyreactivity

Sequence: QVQLVESGGGLVQAGGSLRLSCAASGSIFTPYAMGWYRQAPGKERELVAAITQTGGITYYADSVKGRFTISRDNAKNTVYLQMNSLKPEDTAVYYCAADDYNPFSYSYGLEYWGQGTQVTVSS
- polyreactivity (PSR sort gate): low polyreactivity

Sequence: QVQLVESGGGLVQAGGSLRLSCAASGSIFTPYAMVWYRQAPGQERELVAAITSGGSTYYADSVKGRFTISRDNAKNTVYLQMNSLKPEDTAVYYCARRVWNYLRRSWYDYWGQGTQVTVSS
- polyreactivity (PSR sort gate): high polyreactivity

Sequence: QVQLVESGGGLVQAGGSLRLSCAASGSIFTRNTMGWYRQAPGKDRELVAAITWIGGRTYYADSVKGRFTISRDNAKNTVYLQMNSLKPEDTAVYYCAARSDPYWWQKYYYWGQGTQVTVSS
- polyreactivity (PSR sort gate): high polyreactivity

Sequence: QVQLVESGGGLVQAGGSLRLSCAASGSIFTRYAMGWYRQAPGKERELVATISFIGSSTYYADSVKGRFTISRDNAKNTVYLQMNSLKPEDTAVYSCAATGYARQYEYRYDYWGQGTQVTVSS
- polyreactivity (PSR sort gate): low polyreactivity

Sequence: QVQLVESGGGLVQAGGSLRLSCAASGSIFTRYAMGWYRQSPGKERELVAALSYRGGRTYYADSVKGRFTISRDNAKNTVYLQMNSLKPVDTAVYYCAAGYRFSYSPNEFYYWGQGTQVTVSS
- polyreactivity (PSR sort gate): high polyreactivity

Sequence: QVQLVESGGGLVQAGGSLRLSCAASGSIFTSYAMGWYRQAPGTERELVAVITSSGSSTYYADSVKGRFTISRDNAKNTVYLQMNSMKPEDTAVYYCYGYYDAYGYWGQGTQVTVSS
- polyreactivity (PSR sort gate): low polyreactivity

Sequence: QVQLVESGGGLVQAGGSLRLSCAASGSIFTSYVMGWYRQAPGKERELVAAINSGGRTYYADSVKGRFTISRDNAKNTVYLQMNSLKPEDTAVYYCATDLLYYQYYSEYDYWGQGTQVTVSS
- polyreactivity (PSR sort gate): high polyreactivity

Sequence: QVQLVESGGGLVQAGGSLRLSCAASGSIFTTNAMGWYRQAPGKERELVAAISSRGTSTYYADSVKGRFTISRDNAKNTVYLQMNSLKPEDTAVYYCAADYVYASRHFEYWGQGTQVTVSS
- polyreactivity (PSR sort gate): high polyreactivity

Sequence: QVQLVESGGGLVQAGGSLRLSCAASGSIFTTYAMGWYRQAPGKERELVATITSSDSTNYADSVKGRFTISRDNAKNTVYLQMNSLKPEDTAVYYCNAGGDRTVSVAWYSADDYWGQGTQVTVSS
- polyreactivity (PSR sort gate): low polyreactivity

Sequence: QVQLVESGGGLVQAGGSLRLSCAASGSIFTTYTMGWYRQAPGKERELVAAITSSSGSTYYADSVKGRFTISRDHAKNTVYLQMNSLKPEDTAVYYCNATYSAAVDYWGQGTQVTVSS
- polyreactivity (PSR sort gate): low polyreactivity

Sequence: QVQLVESGGGLVQAGGSLRLSCAASGSIFTVYAMGWYRQAPGKERELVATITGSDGRTDYADSVKGRFTISRDNAKNTVYLQMNSLKPEDTAVYYCAAQVFKWKYRQSLWFDQGYYWGQGTQVTVSS
- polyreactivity (PSR sort gate): low polyreactivity

Sequence: QVQLVESGGGLVQAGGSLRLSCAASGSIFTWYTMGWYRQAPGKERELVAAISWSGGRTYYADSVKGRFTISRDNAKHTVYLQMNSLKPEDTAVYYCAASAYGRPPFDYWGQGTQVTVSS
- polyreactivity (PSR sort gate): high polyreactivity

Sequence: QVQLVESGGGLVQAGGSLRLSCAASGSIFTYNAMGWYRPAPGKERELVASITWSGGSTYYADSVKGRFTISRDNAKNTVSLQMNSLKPEDTAVYYCAAKRVHGATGYWGQGTQVTVSS
- polyreactivity (PSR sort gate): high polyreactivity

Sequence: QVQLVESGGGLVQAGGSLRLSCAASGSIFTYTMGGYRQAPGKERELVATISRTGSTNYADSVKGRFTISRDNAKNTVYLQMNSLKPEDTAVYYCSKGAYITGAWPFYELITPYAYWGQGTQVTVSS
- polyreactivity (PSR sort gate): high polyreactivity

Sequence: QVQLVESGGGLVQAGGSLRLSCAASGSIFTYYAMGWYRKAPGKERELVAAITKSGGRTYYAHSVMGRFTISRDNAKNTVYLQMNRLKPEDTAVYYCAALYGRYQTSYQFDYWGQGTQVTVSS
- polyreactivity (PSR sort gate): high polyreactivity

Sequence: QVQLVESGGGLVQAGGSLRLSCAASGSIFTYYAMGWYRQAPGKEREFVAAISRRGGSTYYADSVKGRFTISRDNAKNTVYLQMNSLKPEDTAVYFCAADRWTRTLVKVIGRYYYCGQGTQVTVSS
- polyreactivity (PSR sort gate): high polyreactivity

Sequence: QVQLVESGGGLVQAGGSLRLSCAASGSIFTYYAMGWYRQAPGKERELVAAINSGGRTNYADSVKGRFTISRDNAKNTVYLQMNSLKPEDTAVYYCAKYGVLQYGYWGQGTQVTVSS
- polyreactivity (PSR sort gate): low polyreactivity

Sequence: QVQLVESGGGLVQAGGSLRLSCAASGSIFTYYAMGWYRQAPGKERELVAAISSDGGRTFYADSVKGRFTISRDNAKNTVYLQMNSLKPEDTAVYYCAAETNRFPGYGYWGQGTQVTVSA
- polyreactivity (PSR sort gate): low polyreactivity

Sequence: QVQLVESGGGLVQAGGSLRLSCAASGSIFTYYTMGWYRPAPGKERELVAAIRWSAGRTYYADSVKGRFTISRDNAKNTVYLQMNSLKPEDTAVYYCAAAERLRHGLKFDYWGQGTQVTVSS
- polyreactivity (PSR sort gate): high polyreactivity

Sequence: QVQLVESGGGLVQAGGSLRLSCAASGSIFTYYVMGWYRQAPGKERELVAAITISGGSTYYADSVKGRFTISRDNAKITVYLQMKSLKPEDTAVYYCAAEEVYYEADGFQYSYDYWGQGTLVTVSS
- polyreactivity (PSR sort gate): high polyreactivity

Sequence: QVQLVESGGGLVQAGGSLRLSCAASGSIFVANAMGWYRQAPGKERELVAAISGSGDRTRYADSVKGRFTISRDNAKNTVYLQMNSLKPEDTAVYYCNARYYASGNLYNYWGQGTQVTVSS
- polyreactivity (PSR sort gate): high polyreactivity

Sequence: QVQLVESGGGLVQAGGSLRLSCAASGSIFVANAMGWYRQAPVKERELVAAISRRGGSTYYADSVKGRFTISRDNAKNTVYLQMNSLKPEDTAVYYCAAEDVYEYDYWGQGTQVTVSS
- polyreactivity (PSR sort gate): high polyreactivity

Sequence: QVQLVESGGGLVQAGGSLRLSCAASGSIFVDTAMGWYRQAPGKERELVAAINWSGGSTYYADSVKGRFTISRDNAQNTVYLQMNSLKPEDTAVYYCYAARPGQTWDEHSWYEYWGQGTQVTVSS
- polyreactivity (PSR sort gate): low polyreactivity

Sequence: QVQLVESGGGLVQAGGSLRLSCAASGSIFVFNAMGWYRQAPGKERELVAAISSSGGSTYYADSVKGRFTISRDNAKNTVYLQMNSLKPEDTAVYYCNKRLYYQRWPAAAREYWGQGTQVTVSS
- polyreactivity (PSR sort gate): high polyreactivity

Sequence: QVQLVESGGGLVQAGGSLRLSCAASGSIFVFYDMGWYRQAPGKERELVATISSGGGGTYYTDSVKGRFTISRDNAKNTVYLQLNSLKPEDTAVYYCAAEGDKYGKGYGYWGQGTQVTVSS
- polyreactivity (PSR sort gate): low polyreactivity

Sequence: QVQLVESGGGLVQAGGSLRLSCAASGSIFVFYDMGWYRQAPGKERELVATISSGGGGTYYTDSVKGRFTISRDNAKNTVYLQMNSLKPEDTAVYYCAAEGDKYGKGYGYWGQGTQVTVSS
- polyreactivity (PSR sort gate): low polyreactivity

Sequence: QVQLVESGGGLVQAGGSLRLSCAASGSIFVGNAMGWYRQAPGKERELVATITSGCSTYYADSVKGRFTISRDNAMNTVYLQMNSLKPEVTAVYYCAADYDFSKFDYDYWGQGTQVTVSS
- polyreactivity (PSR sort gate): low polyreactivity

Sequence: QVQLVESGGGLVQAGGSLRLSCAASGSIFVGNAMGWYRQAPGKERELVSTISRGARTKYADSVKGRFTISRDNAKNTVYLQMNSLKPEDTAVYYCNKVSSYYVFYTPYYSWGQGTQVTVSS
- polyreactivity (PSR sort gate): low polyreactivity

Sequence: QVQLVESGGGLVQAGGSLRLSCAASGSIFVGYAMGWYRQAPGKERELVAAINSSGDRTFYADSVKGRFTISRDNAKNTVYLQMNSLKREDTAVYYCNRVYVRAGVSVAYNYWGQGTQVTVSS
- polyreactivity (PSR sort gate): high polyreactivity

Sequence: QVQLVESGGGLVQAGGSLRLSCAASGSIFVGYAMGWYRQAPGKERELVAAIRWSGGSTYYADSVKGRFTISRDNAKNTVYLQMNSLKPEDTAVYYCAKYFPAGYYYWGQGTQVTVSS
- polyreactivity (PSR sort gate): low polyreactivity

Sequence: QVQLVESGGGLVQAGGSLRLSCAASGSIFVGYVMGWYRQAPGKERELVARIRWGGGRTYYADSVKGRFTISRDNAKNTVYLQMNSLKPEDTAVYYCNARYSYHSVGYWGQGTQVTVSS
- polyreactivity (PSR sort gate): high polyreactivity

Sequence: QVQLVESGGGLVQAGGSLRLSCAASGSIFVINAMGWYRQAPGKERELVAAIDWSGDSTYYADSVKGRFTISRDNAKNTVYLQMNSLKPEDTAVYYCAADLDSRGTYGRYEYWGQGTQVTVSS
- polyreactivity (PSR sort gate): low polyreactivity

Sequence: QVQLVESGGGLVQAGGSLRLSCAASGSIFVIYAMGWYRQAPGKERELVAAITDSATTNYADSVKGRFTISRDNAKNTVYLQMNSLKPEDTAVYYCAAEYSSYPTAWSTYEFDYWGQGTQVTVSS
- polyreactivity (PSR sort gate): low polyreactivity

Sequence: QVQLVESGGGLVQAGGSLRLSCAASGSIFVIYTMGWYRQAPGKERELVAVITWSTGNTYYADSVKGRFTISRDNAKNTVYLQMNSLKPEDTAVYYCAARTTSRWRSCAYYYWGQGTQVTVSS
- polyreactivity (PSR sort gate): high polyreactivity

Sequence: QVQLVESGGGLVQAGGSLRLSCAASGSIFVKNAMGWYRQAPGKERELVAAISRSGGSTYYADSVKGRFTISRDNAKYTVYLQMNSLKPEDTAVYYCNAYGSYWDFDEWGQGTQVTVSS
- polyreactivity (PSR sort gate): high polyreactivity

Sequence: QVQLVESGGGLVQAGGSLRLSCAASGSIFVKNAMGWYRQAPGKERELVATISRRGGSTYYADSVKGRFTISRDNAKNTVYLQMNSLKPEDTAVYYCNRLGTTVSLEYYYWGQGTQVTVSS
- polyreactivity (PSR sort gate): high polyreactivity

Sequence: QVQLVESGGGLVQAGGSLRLSCAASGSIFVKYAMGWYRQATGKERELVASITGRGGSTYYADSVKGRFTISRDNAKNTVYFQMNSLIPEDTAVYYCAARVASRHGWHNYWGQGTQVTVSS
- polyreactivity (PSR sort gate): high polyreactivity

Reference: the nanobody polyreactivity screen of Harvey et al. (2022)
